Drawing on PMC4832424, this text covers Kd, apparent association rate constant k+ of tubulin subunits and apparent dissociation rate constant k- of tubulin subunits for 2 substances.

For experiment [1], the target named is GST-TOG1/2. Kind of experiment: pull-down.
For experiment [2], the target named is TUBB3-D417H (recombinant α/β-tubulin heterodimer with human TUBB3 D417H) (Homo sapiens) (UniProt P68363). Kind of experiment: TIRF microscopy single-filament polymerization assay.
For experiment [3], the target named is wild-type TUBB3 (recombinant α/β-tubulin heterodimer with human β-tubulin isotype III) (Homo sapiens) (UniProt P68363). The experiment is described as above.

One may read the Kd as the constant that tells how readily two partners part at equilibrium. A low value points to tighter binding. The substance “TUBB3-D417H (recombinant α/β-tubulin heterodimer with human TUBB3 D417H) (from UniProt P68363-1 1-437; Q13509-1 1-426) (complex)” gave a Kd in experiment [1] of 1200 nM. Further, in experiment [2], the apparent association rate constant k+ of tubulin subunits at minus-ends came to 1.4e+06 M⁻¹ s⁻¹ and the apparent dissociation rate constant k- of tubulin subunits at minus-ends came to 1.2 s⁻¹.

“wild-type TUBB3 (recombinant α/β-tubulin heterodimer with human β-tubulin isotype III) (from UniProt P68363-1 1-437; Q13509-1 1-426) (complex)”: the Kd in experiment [1] was determined as 400 nM. For the same substance, in experiment [3], the apparent association rate constant k+ of tubulin subunits at plus-ends came out at 1.7e+06 M⁻¹ s⁻¹ and the apparent dissociation rate constant k- of tubulin subunits at plus-ends was 1.1 s⁻¹.
